The values that follow come from the supplement of paper PMC9112550, “Optimization of the antimicrobial peptide Bac7 by deep mutational scanning” (BMC Biology, 2022).

In this data set the test system is Escherichia coli TOP10. Description: shrunken log2 fold change of peptide-encoding DNA abundance (4.5 h post-induction vs induction); higher = less antimicrobial activity (less host growth inhibition). The note with it: time post-induction: 4.5 h; library: site-saturation at positions 5, 18, 19, 20.
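Further: peptides expressed intracellularly from a pBAD plasmid library in pooled LB shake-flask culture, induced with 0.3% L-arabinose, DNA abundance read by NGS, three biological replicates, DESeq2 with apeglm shrinkage.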

For RRIRMRPPRLPRPRPRPMGGPRP, the “shrunken log2 fold change” value was determined as 0.131. RRIRNRPPRLPRPRPRPPEVPRP: the “shrunken log2 fold change” value is 0.0233. Regarding RRIRSRPPRLPRPRPRPHIDPRP, the “shrunken log2 fold change” value is -0.369. For RRIRTRPPRLPRPRPRPMCYPRP, the “shrunken log2 fold change” value is -0.252.

RRIRRRPPRLPRPRPRPIYFPRP: the “shrunken log2 fold change” value was found to be 0.124. On to RRIRFRPPRLPRPRPRPYMHPRP, for which the “shrunken log2 fold change” value was -0.72. The same measure for RRIRMRPPRLPRPRPRPPTSPRP: 1.23; for RRIRARPPRLPRPRPRPNIRPRP: -0.289; for RRIRHRPPRLPRPRPRPAPTPRP: 0.294.

For the sequence RRIRQRPPRLPRPRPRPFPWPRP, the “shrunken log2 fold change” value was -0.0901.

For RRIRFRPPRLPRPRPRPYMQPRP, the “shrunken log2 fold change” value was -0.68. For the sequence RRIRKRPPRLPRPRPRPQVDPRP, the “shrunken log2 fold change” value was 0.288.

Consider RRIRHRPPRLPRPRPRPLNAPRP, for which the “shrunken log2 fold change” value was -0.0576.

Consider RRIRQRPPRLPRPRPRPVNCPRP, for which the “shrunken log2 fold change” value is -0.0672. In the case of RRIRMRPPRLPRPRPRPFRVPRP, the “shrunken log2 fold change” value came out at 0.22. As for RRIRIRPPRLPRPRPRPSPWPRP, the “shrunken log2 fold change” value is -0.34.

Take RRIRWRPPRLPRPRPRPNGWPRP: the “shrunken log2 fold change” value stood at 0.185.

With RRIRKRPPRLPRPRPRPYAFPRP, the “shrunken log2 fold change” value is -0.111. The same measure for RRIRGRPPRLPRPRPRPRMMPRP: 0.882; for RRIRNRPPRLPRPRPRPGELPRP: -0.0397; for RRIRLRPPRLPRPRPRPNPLPRP: 0.256. With RRIRIRPPRLPRPRPRPTVDPRP, the “shrunken log2 fold change” value amounted to 0.11. The same measure for RRIRIRPPRLPRPRPRPGLFPRP: -0.0275; for RRIRQRPPRLPRPRPRPGWRPRP: 2.71; for RRIRQRPPRLPRPRPRPMLYPRP: -0.282. The same measure for RRIRPRPPRLPRPRPRPCNSPRP: -0.276; for RRIRNRPPRLPRPRPRPITHPRP: -0.644.

Take RRIRFRPPRLPRPRPRPACWPRP: the “shrunken log2 fold change” value turned out to be 0.471. RRIRHRPPRLPRPRPRPQRQPRP: the “shrunken log2 fold change” value turned out to be 0.0621. With RRIRGRPPRLPRPRPRPSFMPRP, the “shrunken log2 fold change” value came out at 0.0373.

For the sequence RRIRARPPRLPRPRPRPMNYPRP, the “shrunken log2 fold change” value is -0.182. With RRIRTRPPRLPRPRPRPCMRPRP, the “shrunken log2 fold change” value was -0.0225. As for RRIRNRPPRLPRPRPRPYRKPRP, the “shrunken log2 fold change” value was -0.0658. On to RRIRFRPPRLPRPRPRPWSFPRP, for which the “shrunken log2 fold change” value was -0.34.

As to RRIRKRPPRLPRPRPRPFMVPRP, the “shrunken log2 fold change” value is -0.145. With RRIRLRPPRLPRPRPRPHCPPRP, the “shrunken log2 fold change” value worked out at 0.0666. Consider RRIRYRPPRLPRPRPRPNRGPRP, for which the “shrunken log2 fold change” value was -0.124.

Consider RRIRVRPPRLPRPRPRPYERPRP, for which the “shrunken log2 fold change” value is 0.0458. The same measure for RRIRMRPPRLPRPRPRPRSLPRP: 0.27; for RRIRERPPRLPRPRPRPQVDPRP: -0.211; for RRIRQRPPRLPRPRPRPAPPPRP: 0.702. On to RRIRLRPPRLPRPRPRPQPFPRP, for which the “shrunken log2 fold change” value was -1.07. With RRIRCRPPRLPRPRPRPMTAPRP, the “shrunken log2 fold change” value is 0.0275. With RRIRNRPPRLPRPRPRPTGQPRP, the “shrunken log2 fold change” value is -0.115. In the case of RRIRRRPPRLPRPRPRPWYYPRP, the “shrunken log2 fold change” value is -0.293. RRIRMRPPRLPRPRPRPKWVPRP: the “shrunken log2 fold change” value was found to be 0.466. On to RRIRKRPPRLPRPRPRPCNVPRP, for which the “shrunken log2 fold change” value was -0.192. In the case of RRIRQRPPRLPRPRPRPMIAPRP, the “shrunken log2 fold change” value is -0.00222.

With RRIRQRPPRLPRPRPRPGRQPRP, the “shrunken log2 fold change” value was 0.021. Consider RRIRGRPPRLPRPRPRPENWPRP, for which the “shrunken log2 fold change” value was found to be 0.594.

As to RRIRQRPPRLPRPRPRPQSAPRP, the “shrunken log2 fold change” value was -0.08. On to RRIRFRPPRLPRPRPRPHYCPRP, for which the “shrunken log2 fold change” value was -0.197. As to RRIRERPPRLPRPRPRPCLHPRP, the “shrunken log2 fold change” value was -0.0164. For RRIRWRPPRLPRPRPRPMMLPRP, the “shrunken log2 fold change” value stood at 0.309.

For the sequence RRIRTRPPRLPRPRPRPYCMPRP, the “shrunken log2 fold change” value is -1.28. The same measure for RRIRYRPPRLPRPRPRPGLVPRP: -0.217; for RRIRRRPPRLPRPRPRPCKFPRP: 0.123.

On to RRIRLRPPRLPRPRPRPMIGPRP, for which the “shrunken log2 fold change” value is 0.0237.

With RRIRNRPPRLPRPRPRPPWRPRP, the “shrunken log2 fold change” value was determined as 0.437. In the case of RRIRLRPPRLPRPRPRPLLWPRP, the “shrunken log2 fold change” value was determined as 0.195. With RRIRERPPRLPRPRPRPMGQPRP, the “shrunken log2 fold change” value is -0.0667. As to RRIRFRPPRLPRPRPRPISMPRP, the “shrunken log2 fold change” value is -0.137. Take RRIRYRPPRLPRPRPRPFVNPRP: the “shrunken log2 fold change” value is 0.017. As for RRIRQRPPRLPRPRPRPNKLPRP, the “shrunken log2 fold change” value is -0.0898. For RRIRYRPPRLPRPRPRPFFVPRP the value was -0.689. The same measure for RRIRHRPPRLPRPRPRPTLCPRP: -0.134; for RRIRPRPPRLPRPRPRPCGFPRP: 0.183; for RRIRFRPPRLPRPRPRPIDSPRP: -0.401. As to RRIRMRPPRLPRPRPRPRAIPRP, the “shrunken log2 fold change” value was 0.52. On to RRIRFRPPRLPRPRPRPLWFPRP, for which the “shrunken log2 fold change” value turned out to be 0.00985. On to RRIRSRPPRLPRPRPRPAVQPRP, for which the “shrunken log2 fold change” value is -0.0326. Consider RRIRHRPPRLPRPRPRPLEIPRP, for which the “shrunken log2 fold change” value was -0.0535. For RRIRMRPPRLPRPRPRPPTKPRP the value was 0.508.

Consider RRIRPRPPRLPRPRPRPIKIPRP, for which the “shrunken log2 fold change” value is -0.319. For RRIRIRPPRLPRPRPRPRRQPRP, the “shrunken log2 fold change” value came out at 0.0868.

In the case of RRIRHRPPRLPRPRPRPSEIPRP, the “shrunken log2 fold change” value was -0.0493. For the sequence RRIRPRPPRLPRPRPRPSDSPRP, the “shrunken log2 fold change” value is -0.361. The same measure for RRIRHRPPRLPRPRPRPPWRPRP: 0.538; for RRIRDRPPRLPRPRPRPMAGPRP: 0.00396; for RRIRMRPPRLPRPRPRPDVLPRP: -0.123. On to RRIRTRPPRLPRPRPRPYYLPRP, for which the “shrunken log2 fold change” value is -1.28. The same measure for RRIRWRPPRLPRPRPRPWEQPRP: 0.0277; for RRIRYRPPRLPRPRPRPAAGPRP: -0.197; for RRIRQRPPRLPRPRPRPAPWPRP: 0.548. RRIRMRPPRLPRPRPRPNIEPRP: the “shrunken log2 fold change” value came to 0.219. For RRIRDRPPRLPRPRPRPFDGPRP the value was -0.192; for RRIRVRPPRLPRPRPRPVQHPRP, -0.0336; for RRIRLRPPRLPRPRPRPNAFPRP, 0.00952. For the sequence RRIRNRPPRLPRPRPRPVWTPRP, the “shrunken log2 fold change” value is -0.118. With RRIRPRPPRLPRPRPRPRNDPRP, the “shrunken log2 fold change” value is -0.479. Turning to RRIRTRPPRLPRPRPRPTMLPRP, the “shrunken log2 fold change” value was found to be 3.82.
